According to US20120213786A1 (ONCOMED PHARMACEUTICALS, published 2012):

T1: recombinant human Notch1 protein (human, UniProt P46531 1426-1731, limits assumed)
T1 construct: also called antigen
T1 sequence (looked up): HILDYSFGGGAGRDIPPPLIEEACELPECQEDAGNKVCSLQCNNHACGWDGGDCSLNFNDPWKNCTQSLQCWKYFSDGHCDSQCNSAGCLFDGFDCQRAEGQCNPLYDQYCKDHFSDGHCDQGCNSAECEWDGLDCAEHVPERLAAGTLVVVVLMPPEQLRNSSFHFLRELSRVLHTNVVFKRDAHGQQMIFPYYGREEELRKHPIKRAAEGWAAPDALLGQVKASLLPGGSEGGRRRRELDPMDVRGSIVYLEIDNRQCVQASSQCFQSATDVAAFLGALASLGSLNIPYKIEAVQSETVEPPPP

B1: humanized antibody 52M51H4L3 (antibody, human IgG2, lambda, V domains shown)
VH: QVQLVQSGAEVKKPGASVKISCKVSGYTLRGYWIEWVRQAPGKGLEWIGQILPGTGRTNYNEKFKGRVTMTADTSTDTAYMELSSLRSEDTAVYYCARFDGNYGYYAMDYWGQGTTVTVSS
VL: SQAVVTQEPSLTVSPGGTVTLTCRSSTGAVTTSNYANWFQQKPGQAPRTLIGGTNNRAPGVPARFSGSLLGGKAALTLSGAQPEDEAEYYCALWYSNHWVFGGGTKLTVLG
notes: Heavy chain 52M51-H4 (human IgG2 constant region) with light chain 52M51 L3 (human IgLC1 constant region); also called humanized variant of 52M51; ATCC PTA-9549
B2: humanized antibody 52M51H4L4 (antibody, human IgG2, lambda, V domains shown)
VH: QVQLVQSGAEVKKPGASVKISCKVSGYTLRGYWIEWVRQAPGKGLEWIGQILPGTGRTNYNEKFKGRVTMTADTSTDTAYMELSSLRSEDTAVYYCARFDGNYGYYAMDYWGQGTTVTVSS
VL: SQTVVTQEPSFSVSPGGTVTLTCRSSTGAVTTSNYANWYQQTPGQAPRTLIGGTNNRAPGVPDRFSGSILGNKAALTITGAQADDESDYYCALWYSNHWVFGGGTKLTVLG
notes: Heavy chain 52M51-H4 (human IgG2 constant region) with light chain 52M51 L4 (human IgLC1 constant region)
B3: murine monoclonal antibody 52M51 (antibody, mouse IgG1, V domains shown)
VH: QVQLQQSGAELMKPGASVKISCKAAGYTMRGYWIEWIKQRPGHGLEWIGQILPGTGRTNYNEKFKGKATFTADTSSNTANMQLSSLTSEDSAVYYCARFDGNYGYYAMDYWGQGSSVTVSS
VL: QAVVTQESALTTSPGETVTLTCRSSTGAVTTSNYANWVQEKPDHLFTGLIGGTNNRAPGVPARFSGSLIGDKAALTITGAQTEDEAIYFCALWYSNHWVFGGGTKLTVLG
notes: Hybridoma-derived mouse antibody; also called anti-Notch1 antibody 52M51; ATCC PTA-9405

Each binder was assayed against T1, recombinant human Notch1 protein (assay: SPR (Biacore 2000), recombinant human Notch1 amine-coupled to CM5 chip, antibody injected, global fit).
Method: The affinities for human and mouse Notch1 were determined using a Biacore 2000 instrument. Briefly, recombinant human and mouse Notch1 proteins were immobilized on a CM5 chip using standard amine based chemistry (NHS/EDC). Different antibody concentrations were injected over the protein surfaces and kinetic data were collected over time. The data was fit using the simultaneous global fit equation to yield dissociation constants (KD, nM) for each Notch1 (Table 2).

| Binder | Kd [nM] |
| --- | --- |
| B1 | 4.33 |
| B2 | 7.35 |
| B3 | 2.86 |
